According to patent US8030017B2, “Thermostable luciferases and methods of production” (Promega Corporation, priority 1997, dated 2011):
Where a chain is given by its changes, count along the chain named.

B1: 49-6c10: mutant luciferase, SEQ ID NO:15 (protein)
chain: MEDKNILYGPEPFYPLADGTAGEQMFYALSRYADISGCIALTNAHTKENVLYEELLKLSCRLAESFKKYGLKQNDTIAVCSENGLQFFLPIIASLYLGIIAAPVSDKYIERELIHSLGIVKPRIIFCSKNTFQKVLNVKSKLKYVETIIILDLNEDLGGYQCLNNFISQNSDINLDVKKFKPYSFNRDDQVALVMFSSGTTGVSKGVMLTHKNIVARFSHAKDPTFGNAINPTTAILTVIPFHHGFGMMTTLGYFTCGFRVVLMHTFEEKLFLQSLQDYKVESTLLVPTLMAFFAKSALVEKYDLSHLKEIASGGAPLSKEIGEMVKKRFKLNFVRQGYGLTETTSAVLITPNNDVRPGSTGKIVPFHAVKVVDPTTGKILGPNETGELYFKGDMIMKGYYNNEEATKAIINKDGWLRSGDIAYYDNDGHFYIVDRLKSLIKYKGYQVAPAEIEGILLQHPYIVDAGVTGIPDEAAGELPAAGVVVQTGKYLNEQIVQNFVSSQVSTAKWLRGGVKFLDEIPKGSTGKIDRKVLRQMFEKHTNG
modifications: Mutant luciferase
B2: 49-7a5: mutant luciferase, SEQ ID NO:17 (protein)
chain: B1 chain with L55F, H220I, F294L
modifications: Mutant luciferase
B3: 49-0g12: mutant luciferase, SEQ ID NO:16 (protein)
chain: B1 chain with L55F, A216V, H220L, N412T
modifications: Mutant luciferase
B4: 85(86)-4f12: mutant luciferase, SEQ ID NO:23 (protein)
chain: MADKNILYGPEPFYPLADGTAGEQMFDALSRYADIPGCIALTNAHTKENVLYEEFLKLSCRLAESFKKYGLKQNDTIAVCSENGLQFFLPVIASLYLGIIVAPVNDKYIERELIHSLGIVKPRIIFCSKNTFQKVLNVKSKLKSVETIIILDLNEDLGGYQCLNNFISQNSDINLDVKKFKPYSFNRDDQVALIMFSSGTTGLPKGVMLTHKNIVARFSLAKDPTFGNAINPTTAILTVIPFHHGFGMMTTLGYFTCGFRVVLMHTFEEKLFLQSLQDYKVESTLLVPTLMAFLAKSALVEKYDLSHLKEIASGGAPLSKEIGEMVKKRFKLNFVRQGYGLTETTSAVLITPKXXARPGSTGKIVPFHAVKVVDPTTGKILGPNEPGELYFKGPMIMKGYYNNEEATKAIIDNDGWLRSGDIAYYDNDGHFYIVDRLKSLIKYKGYQVAPAEIEGILLQHPYIVDAGVTGIPDEAAGELPAAGVVVQTGKYLNEQIVQDFVSSQVSTAKWLRGGVKFLDEIPKGSTGKIDRKVLRQMFEKHTNG
modifications: not fully specified; X: residue not identified in the source
B5: 78-1e1-: mutant luciferase, SEQ ID NO:21 (protein)
chain: MADKNILYGPEPFYPLADGTAGEQMFDALSRYADIPGCIALTNAHTKENVLYEEFLKLSCRLAESFKKYGLKQNDTIAVCSENGLQYFLPVIASLYLGIIAAPVSDKYIERELIHSLGIVKPRIIFCSKNTFQKVLNVKSKLKYVETIIILDLNEDLGGYQCLNNFISQNSDINLDVKKFKPNSFNRDDQVALVMFSSGTTGVPKGVMLTHKNIVARFSIAKDPTFGNAINPTTAILTVIPFHHGFGMMTTLGYFTCGFRVVLMHTFEEKLFLQSLQDYKVESTLLVPTLMAFLAKSALVEKYDLSHLKEIASGGAPLSKEIGEMVKKRFKLNFVRQGYGLTETTSAVLITPKXXARPGSTGKIVPFHAVKVVDPTTGKILGPNEPGELYFKGAMIMKGYYNNEEATKAIIDKDGWLRSGDIAYYDNDGHFYIVDRLKSLIKYKGYQVAPAEIEGILLQHPYIVDAGVTGIPDEAAGELPAAGVVVQTGKYLNEQIVQNFVSSQVSTAKWLRGGVKFLDEIPKGSTGKIDRKVLRQMFEKHTNG
modifications: not fully specified; X: residue not identified in the source
B6: 78-2b4: mutant luciferase, SEQ ID NO:22 (protein)
chain: B5 chain with Y87F, I109V, I173S, I220L, P386T
modifications: not fully specified; X: residue not identified in the source

Tests used:
[1] = Robotic quantitative screen of E. coli lysates: luminescence activity (Li), expression/specific activity; assay type: biochemical; settings: relative value
Method: A plate containing cells is retrieved from the carousel and placed on the shaker for 3-5 minutes to fully mix the cells. The cells tend to settle from solution upon standing.
To measure Optical Density (O.D.), the plate is moved from the shaker to the locator near the luminometer; the lid is removed and the plate placed into the luminometer. The O.D. is measured using a 620 nm filter.
To prepare a cell lysate, the plate of cells is first retrieved from the refrigerator and mixed on the shaker to resuspend the cells. A new plate from the carousel without a lid is placed in the reagent dispenser and 20 μl of Buffer A is added to each well. This is placed in the pipetting station.
The plate is then moved to the reagent dispenser to add 175 μl of Buffer B, and then mixed on the shaker for about 15 minutes or more. The combination of the freeze/thaw and Buffer B will cause the cells to lyse.
(§1) One daughter plate is placed in the luminometer and the 1X assay method is used. After the assay, the plate is placed in the ambient incubator, and the second daughter plate is placed in the luminometer. For the second plate, the 0.02X assay method is used. This plate is discarded, and the first plate is returned from the incubator to the luminometer. The repeat assay method is used (i.e., no reagent is injected). Afterwards, the plate is again returned to the ambient incubator.
1X Assay reagent: 5 μM Luciferin; 175 μM ATP; 20 mM Tricine, pH 8.0; 0.1 mM EDTA
(§2) The following criteria were used for screening purposes. The temperature chosen for the enzyme stability parameter was such that the parent enzyme would decay 100 to 1000 fold over 10 hours (see Table 1). Criteria 1 is achieved manually; data for criteria 2-6 is generated by robotic analysis. For all criteria, the maximum value as described is selected. • 1. In vivo screen. The brightest clones are selected at a given temperature. • 2. Expression/specific activity. The value for normalized luminescence is calculated as the ratio of luminescence to optical density. The value is reported as the ratio with the reference value. • 3. Enzyme stability. Measurements of normalized luminescence of the incubated samples (3 taken over about 15 hours) are fitted to In(L)=In(L0)−(t/τ), where L is normalized luminescence and t is time. τ is a measure of the enzyme stability. The value is reported as the ratio with the reference value, and the correlation coefficients are calculated. • 4. Substrate binding. Measurements of normalized luminescence with 1X and 0.02X are taken at the initial reading set, and 1X and 0.06X are taken at the 5 hour set. The ratio of the 0.02X:1X and 0.06X:1X gives the relative luminescence at 0.02X and 0.06X concentrations. These values, along with the relative luminescence at 1X (i.e., 1), are fitted to a Lineweaver-Burk plot to yield the Km:app,total for the substrates ATP, luciferin, and CoA. The values are reported as the inverse ratio with the reference value, and the correlation coefficients are calculated. • 5. Signal stability. The luminescence of the initial IX luminescent reactions are re-measured 3 additional times over about 15 hours. These values are fitted to In(L)=In(L0)−(t/τ) and the integral over t (15 hours) is calculated. Signal stability is then calculated as S=(1−int(L)/L0t)^2. The values are reported as the inverse ratio with the reference value, and the correlation coefficients are calculated. • 6. Composite fitness. The values of criteria 2 through 5 are combined into a single composite value of fitness (or commercial utility). This value is based on a judgment of the relative importance of the other criteria. This judgment is given below:
Normalize luminescence data: For each measurement of luminescence in the eight daughter plates, the normalized luminescence is calculated by dividing the relative light units by the optical density of the original plate. […]

[2] = Robotic quantitative screen of E. coli lysates: enzyme stability (tau) at elevated temperature; assay type: physicochemical; settings: relative value
Method: Two white assay plates (Labsystems #9502887) are obtained from the plate feeder and placed in the pipetter. The incubation plate from the shaker is placed in the pipetter, and the lid removed and placed on the nearby locator. Two daughter plates are made using the pipetting procedure (see “Create Pair of Daughter Plates from Incubation Plate”). Afterwards, the lid is replaced on the parent plate, and the plate is placed in a high temperature incubator. [ranging from 31° C. to about 65° C. depending on the clone.]
To begin the second set of measurements, the plate from the high temperature incubator is placed in the shaker to mix.
In the final set of measurements, the plate from the high temperature incubator is again placed in the shaker to mix.
as §2
Calculate enzyme stability (τ): For each sample, use linear regression to fit In(L1x)=In(L0)−(t/τ) using the three luminescence measurements with 1X substrate concentrations (Plates 1, 5, 8). Also calculate the regression coefficient.
Calculate the reference-normalized values: For the criteria parameter of each sample, a reference-normalized value is determined by calculating the ratio or inverse ratio with the respective reference value. The reference-normalized values are Li/Lir, τ/τr, Kmr/Km:app,total, and Sr/S, where reference values are calculated from the equations of the appropriate reference surface.
“Enzyme stability” was determined by the rate of activity loss from cell lysates over 10 hours. In successive rounds of evolution the incubation temperature of the lysates was increased.
Robotic Automation: Robotic automation was used in the quantitative screens to accurately perform the large number of required quantitative assays on the cultured cells. […]

[3] = Robotic quantitative screen of E. coli lysates: signal stability (S), sustained enzymatic turnover; assay type: biochemical; settings: inverse ratio with reference
Method: as §1
The plate in the ambient incubator is returned to the luminometer and the repeat assay method is again used. The plate is returned afterwards to the ambient incubator.
The plate in the ambient incubator is returned to the luminometer and the repeat assay method is again used. The plate is discarded afterwards.
as §2
Calculate signal stability (S): For each sample, use linear regression to fit In(L)=In(L0)[…] using the four luminescence measurements of the initial microplate with 1X substrate concentrations (Plates 1, 3, 4, and 7). Also calculate the regression coefficient. From the calculated values of T and L0, calculate the integral of luminescence by int(L)=τL0(1−exp(−tf/τ)), where tf is the average time of the last measurement (e.g., 15 hours). The signal stability is calculated as S=(1−int(L)/Litf)^2, where Li is the initial measurement of normalized luminescence with 1× substrate concentration (Plate 1).
[Note: To correct for evaporation, an equation S=(1+K−int(L)/Litf)^2, may be used where 1/K=2(relative change of liquid volume at tf).]
Calculate the reference-normalized values: For the criteria parameter of each sample, a reference-normalized value is determined by calculating the ratio or inverse ratio with the respective reference value. […]

[4] = Control is Luc46-2H3 at 54° C. (=1)
[5] = Control is Luc84-3A6 at 64° C. (=1)
[6] = Control is Luc71-5D4 at 60° C. (=1)

| Molecule | Luminescence (Li) [1, 4] | Enzyme stability (tau) [2, 4] | Signal stability (S) [3, 4] | Luminescence (Li) [1, 6] | Enzyme stability (tau) [2, 6] | Signal stability (S) [3, 6] | also measured |
| --- | --- | --- | --- | --- | --- | --- | --- |
| B1 | 0.57 | 2.2 | 1 | – | – | – | – |
| B2 | 1.08 | 1.44 | 0.99 | – | – | – | – |
| B3 | 1 | 1.58 | 1.08 | – | – | – | – |
| B4 | – | – | – | – | – | – | Luminescence (Li) [1, 5]: 1.1167; Enzyme stability (tau) [2, 5]: 4.7851; Signal stability (S) [3, 5]: 1.0092 |
| B5 | – | – | – | 0.54 | 8.9 | 0.9877 | – |
| B6 | – | – | – | 1.97 | 1.36 | 1.0094 | – |
